T1: FcγRIIa R (FcγRIIa, allotype with Arg at position 131), extracellular domain with C-terminal His tag (human, UniProt P12318 34-217)
T1 construct: extracellular domain; also called FcγRIIa R type; 2aR
T1 sequence (looked up): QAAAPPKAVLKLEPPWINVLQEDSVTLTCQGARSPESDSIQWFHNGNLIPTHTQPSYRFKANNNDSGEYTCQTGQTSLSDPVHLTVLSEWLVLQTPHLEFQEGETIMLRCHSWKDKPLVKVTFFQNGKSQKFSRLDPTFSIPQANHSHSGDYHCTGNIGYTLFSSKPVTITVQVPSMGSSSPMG

B1: GpH7-A5/GpH7-B3 variant S239_08L/GpL16-k0 (antibody, human IgG1, kappa)
heavy 1: not shown
heavy 2: not shown
light: DIVMTQSPLSLPVTPGEPASISCQASESLVHSNRNTYLHWYLQKPGQSPQLLIYKVSNRFSGVPDRFSGSGSGTDFTLKISRVEAEDVGVYYCSQNTHVPPTFGQGTKVEIERTVAAPSVFIFPPSDEQLKSGTASVVCLLNNFYPREAKVQWKVDNALQSGNSQESVTEQDSKDSTYSLSSTLTLSKADYEKHKVYACEVTHQGLSSPVTKSFNRGEC
notes: also called He Ab
B2: GpH7-B3 variant K334_01G/GpL16-k0 (antibody, human IgG1, kappa)
heavy: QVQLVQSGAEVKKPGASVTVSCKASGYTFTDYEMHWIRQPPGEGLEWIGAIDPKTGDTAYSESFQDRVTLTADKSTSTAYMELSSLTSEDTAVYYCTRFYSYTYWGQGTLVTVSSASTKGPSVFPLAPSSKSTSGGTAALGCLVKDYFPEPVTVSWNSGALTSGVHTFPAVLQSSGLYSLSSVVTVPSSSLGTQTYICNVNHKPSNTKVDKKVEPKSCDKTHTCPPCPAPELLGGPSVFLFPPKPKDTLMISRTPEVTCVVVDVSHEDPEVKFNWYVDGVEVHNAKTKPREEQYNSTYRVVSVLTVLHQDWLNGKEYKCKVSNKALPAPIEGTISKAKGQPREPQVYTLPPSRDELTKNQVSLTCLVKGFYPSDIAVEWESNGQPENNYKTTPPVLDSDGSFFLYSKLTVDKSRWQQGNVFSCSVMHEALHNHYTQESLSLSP
light: B1 light
notes: also called Ho Ab K334_01G
B3: GpH7-A5/GpH7-B3 variant Y296_20W/GpL16-k0 (antibody, human IgG1, kappa)
heavy 1: not shown
heavy 2: not shown
light: B1 light
notes: also called He Ab
B4: GpH7-A5/GpH7-B3 variant Y296_14T/GpL16-k0 (antibody, human IgG1, kappa)
heavy 1: not shown
heavy 2: not shown
light: B1 light
notes: also called He Ab
B5: GpH7-A5/GpH7-B3 variant T335_10E/GpL16-k0 (antibody, human IgG1, kappa)
heavy 1: not shown
heavy 2: not shown
light: B1 light
notes: also called He Ab
B6: GpH7-A5/GpH7-B3 variant S239_18N/GpL16-k0 (antibody, human IgG1, kappa)
heavy 1: not shown
heavy 2: not shown
light: B1 light
notes: also called He Ab
B7: GpH7-A5/GpH7-B3 variant T335_02A/GpL16-k0 (antibody, human IgG1, kappa)
heavy 1: not shown
heavy 2: not shown
light: B1 light
notes: also called He Ab
B8: GpH7-A5/GpH7-B3 variant S298_08L/GpL16-k0 (antibody, human IgG1, kappa)
heavy 1: not shown
heavy 2: not shown
light: B1 light
notes: also called He Ab
B9: GpH7-A5/GpH7-B3 variant T335_18N/GpL16-k0 (antibody, human IgG1, kappa)
heavy 1: not shown
heavy 2: not shown
light: B1 light
notes: also called He Ab
B10: GpH7-A5/GpH7-B3 variant Y296_18N/GpL16-k0 (antibody, human IgG1, kappa)
heavy 1: not shown
heavy 2: not shown
light: B1 light
notes: also called He Ab
B11: GpH7-A5/GpH7-B3 variant T335_19Q/GpL16-k0 (antibody, human IgG1, kappa)
heavy 1: not shown
heavy 2: not shown
light: B1 light
notes: also called He Ab
B12: GpH7-A5/GpH7-B3 variant T335_15Y/GpL16-k0 (antibody, human IgG1, kappa)
heavy 1: not shown
heavy 2: not shown
light: B1 light
notes: also called He Ab
B13: GpH7-A5/GpH7-B3 variant Y300_18N/GpL16-k0 (antibody, human IgG1, kappa)
heavy 1: not shown
heavy 2: not shown
light: B1 light
notes: also called He Ab
B14: GpH7-A5/GpH7-B3 variant T335_20W/GpL16-k0 (antibody, human IgG1, kappa)
heavy 1: not shown
heavy 2: not shown
light: B1 light
notes: also called He Ab
B15: GpH7-A5/GpH7-B3 variant T335_07I/GpL16-k0 (antibody, human IgG1, kappa)
heavy 1: not shown
heavy 2: not shown
light: B1 light
notes: also called He Ab
B16: GpH7-A5/GpH7-B3 variant Y296_19Q/GpL16-k0 (antibody, human IgG1, kappa)
heavy 1: not shown
heavy 2: not shown
light: B1 light
notes: also called He Ab
B17: GpH7-A5/GpH7-B3 variant T335_13S/GpL16-k0 (antibody, human IgG1, kappa)
heavy 1: not shown
heavy 2: not shown
light: B1 light
notes: also called He Ab
B18: GpH7-A5/GpH7-B3 variant S267_09D/GpL16-k0 (antibody, human IgG1, kappa)
heavy 1: not shown
heavy 2: not shown
light: B1 light
notes: also called He Ab
B19: GpH7-A5/GpH7-B3 variant S324_04F/GpL16-k0 (antibody, human IgG1, kappa)
heavy 1: not shown
heavy 2: not shown
light: B1 light
notes: also called He Ab
B20: GpH7-A5/GpH7-B3 variant S337_20W/GpL16-k0 (antibody, human IgG1, kappa)
heavy 1: not shown
heavy 2: not shown
light: B1 light
notes: also called He Ab
B21: GpH7-A5/GpH7-B3 variant S337_03V/GpL16-k0 (antibody, human IgG1, kappa)
heavy 1: not shown
heavy 2: not shown
light: B1 light
notes: also called He Ab
B22: GpH7-A5/GpH7-B3 variant Y296_16H/GpL16-k0 (antibody, human IgG1, kappa)
heavy 1: not shown
heavy 2: not shown
light: B1 light
notes: also called He Ab
B23: GpH7-A5/GpH7-B3 variant S337_19Q/GpL16-k0 (antibody, human IgG1, kappa)
heavy 1: not shown
heavy 2: not shown
light: B1 light
notes: also called He Ab
B24: GpH7-A5/GpH7-B3 variant Y296_06M/GpL16-k0 (antibody, human IgG1, kappa)
heavy 1: not shown
heavy 2: not shown
light: B1 light
notes: also called He Ab
B25: GpH7-A5/GpH7-B3 variant T335_16H/GpL16-k0 (antibody, human IgG1, kappa)
heavy 1: not shown
heavy 2: not shown
light: B1 light
notes: also called He Ab
B26: GpH7-A5/GpH7-B3 variant S324_06M/GpL16-k0 (antibody, human IgG1, kappa)
heavy 1: not shown
heavy 2: not shown
light: B1 light
notes: also called He Ab
B27: GpH7-A5/GpH7-B3 variant S337_04F/GpL16-k0 (antibody, human IgG1, kappa)
heavy 1: not shown
heavy 2: not shown
light: B1 light
notes: also called He Ab

Legend:
[1] = target: T1, FcγRIIa R (FcγRIIa, allotype with Arg …); assay: SPR (Biacore), antibody captured on antigen peptide chip, FcγR as analyte; relative binding
[2] = target: T2, FcγRIIIa extracellular domain with C-terminal His tag (human, UniProt P08637 17-208); assay: SPR Biacore, captured antibody, FcγR analyte, relative binding
T2 construct: extracellular domain; also called FcgRIIIa; 3a; not shown: His tag attached to the C terminus
T2 sequence (P08637 17-208): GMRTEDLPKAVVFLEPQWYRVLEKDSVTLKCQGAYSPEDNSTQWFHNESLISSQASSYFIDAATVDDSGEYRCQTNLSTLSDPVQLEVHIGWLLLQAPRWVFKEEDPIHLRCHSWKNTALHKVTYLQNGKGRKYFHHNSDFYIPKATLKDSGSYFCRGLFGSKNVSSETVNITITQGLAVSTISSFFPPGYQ
Experimental: Analysis of interaction between objective antibody and the FcγR was carried out using Biacore T100 (GE Healthcare). HBS-EP+ (GE Healthcare) was used as the running buffer, and the measurement temperature was set to 25° C. Chips produced by immobilizing the antigen peptide by the amine coupling method to a Series S Sencor Chip CM5 (GE Healthcare), or alternatively, chips produced by allowing preliminarily biotinylated antigen peptides to interact with and immobilize onto a Series S Sensor Chip SA (certified) (GE Healthcare) were used. Antibodies of interest were captured onto an antigen peptide-immobilized chip, and allowed to interact to each FcγR diluted with running buffer. To regenerate and repeatedly use the chip, the antibodies captured on the chip were washed off by reacting 10 mM glycine-HCl, pH 1.5.

Binder | He/Con_2aR [1] | Ho/Con_3a [2]
B1 | 122 % of GpH7-A5/GpH7-B3/GpL16-k0 (=100) | –
B2 | – | 104 % of HoCon Ab GpH7-B3/GpL16-k0 (=100)
B3 | 110 % of GpH7-A5/GpH7-B3/GpL16-k0 (=100) | –
B4 | 103 % of GpH7-A5/GpH7-B3/GpL16-k0 (=100) | –
B5 | 111 % of GpH7-A5/GpH7-B3/GpL16-k0 (=100) | –
B6 | 111 % of GpH7-A5/GpH7-B3/GpL16-k0 (=100) | –
B7 | 102 % of GpH7-A5/GpH7-B3/GpL16-k0 (=100) | –
B8 | 105 % of GpH7-A5/GpH7-B3/GpL16-k0 (=100) | –
B9 | 106 % of GpH7-A5/GpH7-B3/GpL16-k0 (=100) | –
B10 | 104 % of GpH7-A5/GpH7-B3/GpL16-k0 (=100) | –
B11 | 106 % of GpH7-A5/GpH7-B3/GpL16-k0 (=100) | –
B12 | 111 % of GpH7-A5/GpH7-B3/GpL16-k0 (=100) | –
B13 | 100 % of GpH7-A5/GpH7-B3/GpL16-k0 (=100) | –
B14 | 109 % of GpH7-A5/GpH7-B3/GpL16-k0 (=100) | –
B15 | 109 % of GpH7-A5/GpH7-B3/GpL16-k0 (=100) | –
B16 | 102 % of GpH7-A5/GpH7-B3/GpL16-k0 (=100) | –
B17 | 110 % of GpH7-A5/GpH7-B3/GpL16-k0 (=100) | –
B18 | 173 % of GpH7-A5/GpH7-B3/GpL16-k0 (=100) | –
B19 | 104 % of GpH7-A5/GpH7-B3/GpL16-k0 (=100) | –
B20 | 110 % of GpH7-A5/GpH7-B3/GpL16-k0 (=100) | –
B21 | 106 % of GpH7-A5/GpH7-B3/GpL16-k0 (=100) | –
B22 | 105 % of GpH7-A5/GpH7-B3/GpL16-k0 (=100) | –
B23 | 106 % of GpH7-A5/GpH7-B3/GpL16-k0 (=100) | –
B24 | 101 % of GpH7-A5/GpH7-B3/GpL16-k0 (=100) | –
B25 | 108 % of GpH7-A5/GpH7-B3/GpL16-k0 (=100) | –
B26 | 123 % of GpH7-A5/GpH7-B3/GpL16-k0 (=100) | –
B27 | 105 % of GpH7-A5/GpH7-B3/GpL16-k0 (=100) | –

From US20150344570A1 (published 2015)
